{"source": "patent US20260115256A1", "about": "(HANGZHOU SCIWIND BIOSCIENCES, published 2026)", "binders": {"B1": {"name": "PD122 (peptide)", "peptide": "{C20 diacid-γGlu-AEEA}-KCNTATCATQRLADFLRHSSNNLGPILPPTNVGSNT[Hyp]-NH2", "modifications": "disulfide 2-7 (inferred); not fully specified; printed as KCNTATCATQRLADFLRHSSNNLGPILPPTNVGSNT-trans-Hyp-NH2"}, "B2": {"name": "PD123 (peptide)", "peptide": "{C20 diacid-γGlu-AEEA-AEEA}-KCNTATCATQRLADFLRHSSNNLGPILPPTNVGSNT[Hyp]-NH2", "modifications": "disulfide 2-7 (inferred); not fully specified; printed as KCNTATCATQRLADFLRHSSNNLGPILPPTNVGSNT-trans-Hyp-NH2"}, "B3": {"name": "PD124 (peptide)", "peptide": "{C18 diacid-γGlu}-KCNTATCATQRLADFLRHSSNNLGPILPPTNVGSNT[Hyp]-NH2", "modifications": "disulfide 2-7 (inferred); not fully specified; printed as KCNTATCATQRLADFLRHSSNNLGPILPPTNVGSNT-trans-Hyp-NH2"}}, "note": "*1 amine or outer side, *2 acyl side, *3 side chain or, on linkers, in order; H or OH if unused. Bridges are numbered along the chain shown (N, C = ends). Where no end group is shown, it is not given here. Side-chain parts run from the residue outwards. [ ]: non-standard residue; d: D form. The star is where a group is joined. C20 diacid = O=C(O)CCCCCCCCCCCCCCCCCCC(=O)*; C18 diacid = O=C(O)CCCCCCCCCCCCCCCCC(=O)*; γGlu = O=C(O)[C@H](CCC(=O)[*:2])N[*:1]; Hyp = O=C(O)[C@@H]1C[C@@H](O)CN1; AEEA = NCCOCCOCC(=O)O", "data": [{"target": "T1, human amylin receptor (AMY3) on CHO-K1/Ga15/AMY3 cells (human, UniProt P30988 25-474; O60896 24-148)", "T1 sequence (looked up) 1": "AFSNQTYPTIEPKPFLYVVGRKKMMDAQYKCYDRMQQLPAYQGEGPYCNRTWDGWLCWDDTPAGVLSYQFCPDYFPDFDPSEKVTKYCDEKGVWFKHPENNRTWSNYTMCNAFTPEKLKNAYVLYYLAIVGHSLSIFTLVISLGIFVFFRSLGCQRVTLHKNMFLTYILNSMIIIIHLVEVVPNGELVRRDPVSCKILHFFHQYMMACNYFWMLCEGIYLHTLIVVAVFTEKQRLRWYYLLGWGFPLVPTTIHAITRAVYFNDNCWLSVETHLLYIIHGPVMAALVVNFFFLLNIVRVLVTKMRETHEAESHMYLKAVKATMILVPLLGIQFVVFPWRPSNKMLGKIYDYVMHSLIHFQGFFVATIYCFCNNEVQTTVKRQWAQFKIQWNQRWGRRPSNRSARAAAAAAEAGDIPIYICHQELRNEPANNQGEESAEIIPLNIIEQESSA", "T1 sequence (looked up) 2": "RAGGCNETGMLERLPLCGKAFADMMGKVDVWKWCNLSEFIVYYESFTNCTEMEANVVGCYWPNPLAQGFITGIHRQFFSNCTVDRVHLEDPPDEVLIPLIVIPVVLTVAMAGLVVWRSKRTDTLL", "experiment": "cell-based or functional assay", "units": {"EC50, CRE-luciferase assay": "pM"}, "values": [{"binder": "RCNTATCATQRLADFLRHSSNNK([AEEA-γGlu-C18 diacid])GPILPPTNVGSNT[Hyp]-NH2 (disulfide 2-7 (inferred))", "note": "[PD111]", "EC50, CRE-luciferase assay": 8}, {"binder": "{C18 diacid-γGlu-AEEA}-KCNTATCATQRLADFLRHSSNNLGPILPPTNVGSNT[Hyp]-NH2 (disulfide 2-7 (inferred))", "note": "[PD125]", "EC50, CRE-luciferase assay": 10}, {"binder": "RCNTATCATQRLADFLRHSSK([AEEA-γGlu-C20 diacid])NLGPILPPTNVGSNT[Hyp]-NH2 (disulfide 2-7 (inferred))", "note": "[PD114]", "EC50, CRE-luciferase assay": 29}, {"binder": "B1", "EC50, CRE-luciferase assay": 48}, {"binder": "RCNTATCATQRLADFLRHSSNNLGK([γGlu-C20 diacid])ILPPTNVGSNT[Hyp]-NH2 (disulfide 2-7 (inferred))", "note": "[PD102]", "EC50, CRE-luciferase assay": 33}, {"binder": "RCNTATCATQRLADFLRHSSNNLK([γGlu-C18 diacid])PILPPTNVGSNT[Hyp]-NH2 (disulfide 2-7 (inferred))", "note": "[PD107]", "EC50, CRE-luciferase assay": 27}, {"binder": "RCNTATCATQRLADFLRHSSNNLGK([AEEA-AEEA-γGlu-C18 diacid])ILPPTNVGSNT[Hyp]-NH2 (disulfide 2-7 (inferred))", "note": "[PD105]", "EC50, CRE-luciferase assay": 33}, {"binder": "RCNTATCATQRLAEFLRHSSNNLK([γGlu-C20 diacid])PILPPTNVGSNTY-NH2 (disulfide 2-7 (inferred))", "note": "[PD017]", "EC50, CRE-luciferase assay": 772}, {"binder": "B2", "EC50, CRE-luciferase assay": 68}, {"binder": "RCNTATCATQRLADFLRHSK([AEEA-γGlu-C18 diacid])NNLGPILPPTNVGSNT[Hyp]-NH2 (disulfide 2-7 (inferred))", "note": "[PD117]", "EC50, CRE-luciferase assay": 14}, {"binder": "RCNTATCATQRLADFLRHSK([AEEA-γGlu-C20 diacid])NNLGPILPPTNVGSNT[Hyp]-NH2 (disulfide 2-7 (inferred))", "note": "[PD116]", "EC50, CRE-luciferase assay": 33}, {"binder": "B3", "EC50, CRE-luciferase assay": 8}, {"binder": "{C18 diacid-γGlu-AEEA-AEEA}-KCNTATCATQRLADFLRHSSNNLGPILPPTNVGSNT[Hyp]-NH2 (disulfide 2-7 (inferred))", "note": "[PD126]", "EC50, CRE-luciferase assay": 28}, {"binder": "RCNTATCATQRLAEFLRHSSNNK([γGlu-C20 diacid])GPILPPTNVGSNTP-NH2 (disulfide 2-7 (inferred))", "note": "[PD008]", "EC50, CRE-luciferase assay": 281}, {"binder": "RCNTATCATQRLADFLRHSSNK([AEEA-γGlu-C20 diacid])LGPILPPTNVGSNT[Hyp]-NH2 (disulfide 2-7 (inferred))", "note": "[PD112]", "EC50, CRE-luciferase assay": 30}, {"binder": "RCNTATCATQRLADFLRHK([AEEA-γGlu-C20 diacid])SNNLGPILPPTNVGSNT[Hyp]-NH2 (disulfide 2-7 (inferred))", "note": "[PD118]", "EC50, CRE-luciferase assay": 32}, {"binder": "RCNTATCATQRLADFLRHSSNNLK([AEEA-AEEA-γGlu-C18 diacid])PILPPTNVGSNT[Hyp]-NH2 (disulfide 2-7 (inferred))", "note": "[PD109]", "EC50, CRE-luciferase assay": 10}, {"binder": "RCNTATCATQRLADFLRHK([AEEA-γGlu-C18 diacid])SNNLGPILPPTNVGSNT[Hyp]-NH2 (disulfide 2-7 (inferred))", "note": "[PD119]", "EC50, CRE-luciferase assay": 24}, {"binder": "RCNTATCATQRLADFLRHSSNNLK([AEEA-γGlu-C18 diacid])PILPPTNVGSNT[Hyp]-NH2 (disulfide 2-7 (inferred))", "note": "[PD108]", "EC50, CRE-luciferase assay": 28}, {"binder": "RCNTATCATQRLADFLRHSSK([AEEA-γGlu-C18 diacid])NLGPILPPTNVGSNT[Hyp]-NH2 (disulfide 2-7 (inferred))", "note": "[PD115]", "EC50, CRE-luciferase assay": 11}, {"binder": "RCNTATCATQRLADFLRHSSNNLGK([AEEA-γGlu-C20 diacid])ILPPTNVGSNT[Hyp]-NH2 (disulfide 2-7 (inferred))", "note": "[PD120]", "EC50, CRE-luciferase assay": 23}, {"binder": "RCNTATCATQRLADFLRHSSNNLK([AEEA-γGlu-C20 diacid])PILPPTNVGSNT[Hyp]-NH2 (disulfide 2-7 (inferred))", "note": "[PD106]", "EC50, CRE-luciferase assay": 26}, {"binder": "RCNTATCATQRLADFLRHSSNK([AEEA-γGlu-C18 diacid])LGPILPPTNVGSNT[Hyp]-NH2 (disulfide 2-7 (inferred))", "note": "[PD113]", "EC50, CRE-luciferase assay": 17}, {"binder": "RCNTATCATQRLADFLRHSSNNK([AEEA-γGlu-C20 diacid])GPILPPTNVGSNT[Hyp]-NH2 (disulfide 2-7 (inferred))", "note": "[PD110]", "EC50, CRE-luciferase assay": 39}, {"binder": "RCNTATCATQRLADFLRHSSNNLGK([AEEA-γGlu-C18 diacid])ILPPTNVGSNT[Hyp]-NH2 (disulfide 2-7 (inferred))", "note": "[PD121]", "EC50, CRE-luciferase assay": 18}, {"binder": "{C20 diacid-γGlu}-KCNTATCATQRLANFLVHSSNNFGPILPPTNVGSNTY-NH2 (ends and bridges not checked)", "note": "[PD156]", "EC50, CRE-luciferase assay": 29}, {"binder": "RCNTATCATQRLADFLRHSSNNLGK([AEEA-AEEA-γGlu-C20 diacid])ILPPTNVGSNT[Hyp]-NH2 (disulfide 2-7 (inferred))", "note": "[PD103]", "EC50, CRE-luciferase assay": 33}, {"binder": "RCNTATCATQRLADFLRHK([γGlu-C18 diacid])SNNLGPILPPTNVGSNT[Hyp]-NH2 (disulfide 2-7 (inferred))", "note": "[PD100]", "EC50, CRE-luciferase assay": 60}, {"binder": "RCNTATCATQRLADFLRHSSNNLGK([γGlu-C18 diacid])ILPPTNVGSNT[Hyp]-NH2 (disulfide 2-7 (inferred))", "note": "[PD104]", "EC50, CRE-luciferase assay": 11}, {"binder": "{C20 diacid-γGlu}-KCNTATCATQRLADFLRHSSNNLRPILPPTNVGSNT[Hyp]-NH2 (disulfide 2-7 (inferred))", "note": "[PD158]", "EC50, CRE-luciferase assay": 22}, {"binder": "RCNTATCATQRLAEFLRHSSNNLK([γGlu-C20 diacid])PILPPTNVGSNTP-NH2 (disulfide 2-7 (inferred))", "note": "[PD009]", "EC50, CRE-luciferase assay": 67}, {"binder": "RCNTATCATQRLADFLRHK([AEEA-AEEA-γGlu-C18 diacid])SNNLGPILPPTNVGSNT[Hyp]-NH2 (disulfide 2-7 (inferred))", "note": "[PD101]", "EC50, CRE-luciferase assay": 12}]}]}
